Assay results reported in article PMC2241622, “Aminopeptidase B, a glucagon-processing enzyme: site directed mutagenesis of the Zn^2+-binding motif and molecular modelling” (BMC Biochemistry, 2007).
Read-outs that look alike come from different tables or passages of the source. Values belong to the molecule of their own block, whether it stands above or below them.

Tests used:
[1] = target: T1, Aminopeptidase B (His-rAp-B) (Rattus norvegicus, UniProt O09175); assay: L-Arg-β-NA hydrolysis assay with recombinant enzyme; Ki and percent inhibition ([…] at […]); format: biochemical
T1 construct: gene Rnpep; His-tagged full-length rat Ap-B (673 residues incl. His-tag/Factor Xa site; 650-residue Ap-B) from E. coli
T1 sequence (O09175 1-650): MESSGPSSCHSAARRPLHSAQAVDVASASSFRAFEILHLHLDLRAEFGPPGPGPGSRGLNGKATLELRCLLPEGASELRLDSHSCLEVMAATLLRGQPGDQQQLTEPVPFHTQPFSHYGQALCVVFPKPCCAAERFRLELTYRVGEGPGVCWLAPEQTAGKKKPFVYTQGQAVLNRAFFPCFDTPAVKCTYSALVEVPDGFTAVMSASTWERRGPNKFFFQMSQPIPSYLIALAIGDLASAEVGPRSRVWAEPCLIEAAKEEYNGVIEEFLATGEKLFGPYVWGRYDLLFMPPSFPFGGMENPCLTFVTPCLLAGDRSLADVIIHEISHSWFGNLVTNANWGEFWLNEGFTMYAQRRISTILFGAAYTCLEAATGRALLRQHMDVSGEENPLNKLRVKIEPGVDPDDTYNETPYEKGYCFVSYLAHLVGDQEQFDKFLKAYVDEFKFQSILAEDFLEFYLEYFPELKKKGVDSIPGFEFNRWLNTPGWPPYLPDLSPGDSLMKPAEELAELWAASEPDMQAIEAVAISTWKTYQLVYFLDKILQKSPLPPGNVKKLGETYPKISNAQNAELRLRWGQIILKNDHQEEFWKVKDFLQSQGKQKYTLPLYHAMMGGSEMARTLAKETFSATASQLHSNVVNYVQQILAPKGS

[2] = target: T1, Aminopeptidase B (His-rAp-B); assay: as above; format: biochemical; remark: listed apart in the source
[3] = target: T1, Aminopeptidase B (His-rAp-B); assay: as above; format: biochemical; remark: listed apart in the source
purified protein [4] = substrate: N=C(N)NCCC[C@H](N)C(=O)Nc1ccc2ccccc2c1; assay: purified protein; format: biochemical, Rattus norvegicus; conditions: Zn2+
purified protein [5] = substrate: NCCCC[C@H](N)C(=O)Nc1ccc2ccccc2c1; assay: purified protein; format: biochemical, Rattus norvegicus; conditions: Zn2+

Molecule: NC(N)=NCCC[C@H](N)C(=O)C[C@@H](Cc1ccccc1)C(=O)O [Arphamenine A]
- Ki [2]: 20 nM

B1: Aminopeptidase B (His-rAp-B) (Rattus norvegicus) (protein)
chain: MESSGPSSCHSAARRPLHSAQAVDVASASSFRAFEILHLHLDLRAEFGPPGPGPGSRGLNGKATLELRCLLPEGASELRLDSHSCLEVMAATLLRGQPGDQQQLTEPVPFHTQPFSHYGQALCVVFPKPCCAAERFRLELTYRVGEGPGVCWLAPEQTAGKKKPFVYTQGQAVLNRAFFPCFDTPAVKCTYSALVEVPDGFTAVMSASTWERRGPNKFFFQMSQPIPSYLIALAIGDLASAEVGPRSRVWAEPCLIEAAKEEYNGVIEEFLATGEKLFGPYVWGRYDLLFMPPSFPFGGMENPCLTFVTPCLLAGDRSLADVIIHEISHSWFGNLVTNANWGEFWLNEGFTMYAQRRISTILFGAAYTCLEAATGRALLRQHMDVSGEENPLNKLRVKIEPGVDPDDTYNETPYEKGYCFVSYLAHLVGDQEQFDKFLKAYVDEFKFQSILAEDFLEFYLEYFPELKKKGVDSIPGFEFNRWLNTPGWPPYLPDLSPGDSLMKPAEELAELWAASEPDMQAIEAVAISTWKTYQLVYFLDKILQKSPLPPGNVKKLGETYPKISNAQNAELRLRWGQIILKNDHQEEFWKVKDFLQSQGKQKYTLPLYHAMMGGSEMARTLAKETFSATASQLHSNVVNYVQQILAPKGS
notes: His-tagged full-length rat Ap-B (673 residues incl. His-tag/Factor Xa site; 650-residue Ap-B) from E. coli, Ni-NTA purified
- Km (purified protein [4]): 108 ± 13 µM
- Vmax (purified protein [4]): 8.76 µM/min
- kcat (purified protein [4]): 20 ± 3 s⁻¹
- kcat/Km (purified protein [4]): 185000 M⁻¹ s⁻¹
- Km (purified protein [5]): 135 ± 30 µM
- Vmax (purified protein [5]): 3.9 µM/min
- kcat (purified protein [5]): 3 ± 0.35 s⁻¹
- kcat/Km (purified protein [5]): 22000 ± 2000 M⁻¹ s⁻¹

Results, then the molecule that gave them:

- Ki [1]: 50 nM
Molecule: CC(C)C[C@H](NC(=O)[C@@H](O)[C@H](N)Cc1ccccc1)C(=O)O [Bestatin]

- Ki [3]: 20 nM
Molecule: N=C(N)NCCC[C@H](N)C(=O)C[C@@H](Cc1ccc(O)cc1)C(=O)O [Arphamenine B]
